Experimental data reported in patent publication US20160251438A1 (LUDWIG INSTITUTE FOR CANCER RESEARCH, published 2016).

Assays:
[1] = target: GARP / TGF-β1 Y336A complex (human, UniProt Q14392 20-662; P01137 30-390); test: FACS 293T, 5 ug/ml, normalised to anti-HA
Description: (§1) Resolution of the crystal structure of MHG-8 Fab/GARP/TGF-β1 complexes and analysis with the CONTACT software allowed the identification of 22 amino-acids in GARP, 8 amino-acids in LAP and 6 amino-acids in mature TGF-β1 that are located less than 5 Å away from an amino-acid of the light or heavy chain of the MHG-8 Fab (Tables 7a, b and c, and Table 8). Directed mutagenesis was used to construct plasmids encoding HA-tagged forms of GARP or TGF-β1 that are mutated at one, two, or three of these 36 positions (all mutations constructed are indicated in Table 8). […] Antibodies were used at a saturating concentration of 5 μg/ml for labeling. Binding of each antibody to a given mutant GARP/TGF-β1 complex was compared to their binding to wild type (WT) complexes, by determining an I_{m/wt} value (i.e. intensity of binding to mutant by comparison to WT). This value was calculated as follows: I_{m/wt} of antibody X=[Geom on mutant−Geom on control]/[Geom on WT−Geom on control]
(§2) The level of residual binding of anti-GARP or anti-LAP antibodies to each mutant was then calculated by comparison to WT, taking into account the expression levels of mutant and WT forms as measured with anti-HA antibodies. Residual binding was calculated as follows: Residual binding by an anti-GARP or anti-LAP antibody=[I_{m/wt} with anti-GARP or anti-LAP antibody]/[I_{m/wt} with anti-HA antibody]

[2] = target: T1, GARP Y137H / TGF-β1 complex (human, UniProt Q14392 20-662; P01137 30-390); test: FACS 293T, 5 ug/ml, normalised to anti-HA
Description: as §1, §2

[3] = target: GARP / TGF-β1 K338E complex (human, UniProt Q14392 20-662; P01137 30-390); test: FACS 293T, 5 ug/ml, normalised to anti-HA
Description: as §1, §2

[4] = target: GARP R163E / TGF-β1 complex (human, UniProt Q14392 20-662; P01137 30-390); test: FACS 293T, 5 ug/ml, normalised to anti-HA
Description: as §1, §2

[5] = target: GARP Y137H/S138G/G139N / TGF-β1 complex (human, UniProt Q14392 20-662; P01137 30-390); test: FACS 293T, 5 ug/ml, normalised to anti-HA
Description: as §1, §2

[6] = target: GARP T162D / TGF-β1 complex (human, UniProt Q14392 20-662; P01137 30-390); test: FACS 293T, 5 ug/ml, normalised to anti-HA
Description: as §1, §2

[7] = target: GARP R143Y / TGF-β1 complex (human, UniProt Q14392 20-662; P01137 30-390); test: FACS 293T, 5 ug/ml, normalised to anti-HA
Description: as §1, §2

[8] = target: GARP / TGF-β1 Q269Y complex (human, UniProt Q14392 20-662; P01137 30-390); test: FACS titration on transfected 293T; EC50 mutant / EC50 WT [cont.) B]
Experimental: (§3) Intensities of staining at each concentration of antibody relative to the maximal intensity measured at 5 μg/ml were determined as follows:
(§4) The relative staining intensities were plotted according to the concentration of antibody used for staining, and a non-linear regression analysis was used with the Prism software to determine an EC₅₀ value for binding of the antibody to the WT and to each of the various mutant GARP/TGF-β1 complexes. If the ratio between the EC₅₀ measured on the mutant and the EC₅₀ measured on the WT was >2, the mutation was considered to induce a reduced avidity for binding by the antibody. The ratio of EC₅₀ (mutant vs WT) for MHG-8 and LHG-10 are indicated below each mutation on FIG. 19, parts A and B, respectively.

[9] = target: T1, GARP Y137H / TGF-β1 complex; test: as above
Experimental: as §3, §4

[10] = target: GARP / TGF-β1 R58A complex (human, UniProt Q14392 20-662; P01137 30-390); test: as above
Experimental: as §3, §4

[11] = target: GARP M111T/A112G/T113M / TGF-β1 complex (human, UniProt Q14392 20-662; P01137 30-390); test: as above
Experimental: as §3, §4

[12] = target: GARP / TGF-β1 H270Y complex (human, UniProt Q14392 20-662; P01137 30-390); test: as above
Experimental: as §3, §4

[13] = target: GARP T165A / TGF-β1 complex (human, UniProt Q14392 20-662; P01137 30-390); test: as above
Experimental: as §3, §4

[14] = target: GARP / TGF-β1 S337A complex (human, UniProt Q14392 20-662; P01137 30-390); test: as above
Experimental: as §3, §4

[15] = target: GARP R170A / TGF-β1 complex (human, UniProt Q14392 20-662; P01137 30-390); test: as above
Experimental: as §3, §4

human TGF-β1 (latent) = target: T2, human TGF-β1 (latent) (human, UniProt P01137 30-390); test: FACS, 293T + hTGFB1 only [cont.) B]
T2 construct: from transfected hTGFB1; also called hTGF-β1; hTGFB1
Description: No latent TGF-β is detected on their surface with an anti-LAP antibody. Transfection of GARP or TGFB1 alone induces no or low surface LAP, respectively, whereas co-transfection of GARP and TGFB1 induces high surface LAP as a result of latent TGF-β1 binding and presentation by GARP (FIG. 14, part B, left histograms).

T1 sequence (Q14392 20-662 Y137H limits assumed, chain 1 of 2): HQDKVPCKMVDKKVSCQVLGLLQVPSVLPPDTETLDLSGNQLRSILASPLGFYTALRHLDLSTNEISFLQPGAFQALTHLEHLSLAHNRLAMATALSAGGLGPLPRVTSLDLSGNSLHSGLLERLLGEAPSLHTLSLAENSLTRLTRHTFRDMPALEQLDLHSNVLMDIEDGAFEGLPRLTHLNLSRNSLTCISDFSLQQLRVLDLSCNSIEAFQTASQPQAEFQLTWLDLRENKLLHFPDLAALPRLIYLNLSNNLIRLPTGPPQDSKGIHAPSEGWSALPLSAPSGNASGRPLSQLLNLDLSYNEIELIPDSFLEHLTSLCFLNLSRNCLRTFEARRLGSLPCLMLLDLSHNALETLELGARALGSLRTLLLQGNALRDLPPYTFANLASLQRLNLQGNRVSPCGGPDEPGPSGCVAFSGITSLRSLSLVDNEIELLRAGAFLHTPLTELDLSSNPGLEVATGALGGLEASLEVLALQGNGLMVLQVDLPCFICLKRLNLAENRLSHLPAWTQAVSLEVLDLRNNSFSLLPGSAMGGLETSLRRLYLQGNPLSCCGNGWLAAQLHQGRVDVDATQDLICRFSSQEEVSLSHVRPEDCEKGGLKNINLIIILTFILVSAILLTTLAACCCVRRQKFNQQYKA
T1 sequence (P01137 30-390 limits assumed, chain 2 of 2): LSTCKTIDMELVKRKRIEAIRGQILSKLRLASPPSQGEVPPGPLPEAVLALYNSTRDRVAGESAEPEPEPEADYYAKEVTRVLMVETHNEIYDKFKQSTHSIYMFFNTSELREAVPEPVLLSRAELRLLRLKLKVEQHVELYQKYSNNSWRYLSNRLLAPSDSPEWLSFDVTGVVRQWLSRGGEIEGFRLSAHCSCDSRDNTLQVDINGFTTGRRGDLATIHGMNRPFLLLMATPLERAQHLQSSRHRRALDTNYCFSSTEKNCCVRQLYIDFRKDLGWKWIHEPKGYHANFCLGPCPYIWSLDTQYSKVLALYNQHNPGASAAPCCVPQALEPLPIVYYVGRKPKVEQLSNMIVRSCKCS
Chain of GARP Y137H/S138G/G139N / TGF-β1 complex (Q14392 20-662 Y137H/S138G/G139N limits assumed, chain 1 of 2): as the sequence (Q14392 20-662 Y137H limits assumed, chain 1 of 2) above, with S119G, G120N counted along it
Chain of GARP Y137H/S138G/G139N / TGF-β1 complex (P01137 30-390 limits assumed, stated change not applied, chain 2 of 2): as the sequence (P01137 30-390 limits assumed, chain 2 of 2) above
Chain of GARP R170A / TGF-β1 complex (Q14392 20-662 R170A limits assumed, chain 1 of 2): as the sequence (Q14392 20-662 Y137H limits assumed, chain 1 of 2) above, with H118Y, R151A counted along it
Chain of GARP R170A / TGF-β1 complex (P01137 30-390 limits assumed, chain 2 of 2): as the sequence (P01137 30-390 limits assumed, chain 2 of 2) above
Chain of GARP R143Y / TGF-β1 complex (Q14392 20-662 R143Y limits assumed, chain 1 of 2): as the sequence (Q14392 20-662 Y137H limits assumed, chain 1 of 2) above, with H118Y, R124Y counted along it
Chain of GARP R143Y / TGF-β1 complex (P01137 30-390 limits assumed, chain 2 of 2): as the sequence (P01137 30-390 limits assumed, chain 2 of 2) above
T2 sequence (P01137 30-390 limits assumed): as the sequence (P01137 30-390 limits assumed, chain 2 of 2) above

residual binding (% of WT) [1]: 56%
residual binding (% of WT) [2]: 62%
residual binding (% of WT) [3]: 15%
residual binding (% of WT) [4]: 48%
residual binding (% of WT) [5]: 6%
residual binding (% of WT) [6]: 49%
residual binding (% of WT) [7]: 68%
Ratio of EC50 (mutant / wt) [8]: 0.8
Ratio of EC50 (mutant / wt) [9]: 0.6
Ratio of EC50 (mutant / wt) [10]: 1.5
Ratio of EC50 (mutant / wt) [11]: 1.2
Ratio of EC50 (mutant / wt) [12]: 0.7
Ratio of EC50 (mutant / wt) [13]: 1
Ratio of EC50 (mutant / wt) [14]: 1.4
Ratio of EC50 (mutant / wt) [15]: 1.5
binding result (human TGF-β1 (latent)): no binding
B1: LHG-10 (antibody, human IgG1, V domains shown)
VH: EVQLVQPGAELRNSGASVKVSCKASGYRFTSYYIDWVRQAPGQGLEWMGRIDPEDGGTKYAQKFQGRVTFTADTSTSTAYVELSSLRSEDTAVYYCARNEWETVVVGDLMYEYEYWGQGTQVTVSS
VL: DIQMTQSPTSLSASLGDRVTITCQASQSISSYLAWYQQKPGQAPKLLIYGASRLQTGVPSRFSGSGSGTSFTLTISGLEAEDAGTYYCQQYDSLPVTFGQGTKVELK
notes: llama-derived V regions in a full human IgG1
